Data set [1] deals with T1, PunR (YdhB), LysR-family regulator (Escherichia coli K-12 (ASKA collection …, UniProt P0ACR2 1-310)).
T1 sequence: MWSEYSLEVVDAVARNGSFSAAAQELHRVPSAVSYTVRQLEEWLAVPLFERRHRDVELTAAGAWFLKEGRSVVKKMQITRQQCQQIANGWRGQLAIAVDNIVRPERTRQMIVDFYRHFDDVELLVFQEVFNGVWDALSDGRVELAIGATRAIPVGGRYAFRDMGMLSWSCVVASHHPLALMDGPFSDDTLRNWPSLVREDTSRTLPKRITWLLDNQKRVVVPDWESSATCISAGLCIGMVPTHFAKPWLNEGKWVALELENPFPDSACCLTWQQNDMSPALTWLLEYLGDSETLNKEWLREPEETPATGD
Description: EMSA; 1 mM adenine; PunR up to 1.5 uM; 10 mM MgSO4; FP: 20 mM Tris-HCl pH 7.5, 0.1 M NaCl, 0.5 mM EDTA, 10 mM MgSO4, 2 mM DTT, 5 ug/ml herring sperm DNA, 10 nM DNA, 30 C 1 h; EMSA: PBS pH 8, 10 mM MgSO4, 2 mM DTT, 0.25 mM adenine (Methods; 1 or 10 mM in Results and Fig. S3), 100 nM DNA, 30 C 1 h then 25 C 1 h, 6% native PAGE Tris-glycine with 0.25 mM adenine. As to conditions: protein: recombinant; tags: N-terminal His6; chain copies: 4; label: 5' 6-carboxyfluorescein on printed strand; blunt. On the technique in general: A gel shift assay detects complexes by their altered migration in electrophoresis.

Data set [2] concerns the target T1, PunR (YdhB), LysR-family regulator. The experiment in a line: fluorescence polarization; 0.35 mM adenine; 10 mM MgSO4; FP: 20 mM Tris-HCl pH 7.5, 0.1 M NaCl, 0.5 mM EDTA, 10 mM MgSO4, 2 mM DTT, 5 ug/ml herring sperm DNA, 10 nM DNA, 30 C 1 h; EMSA: PBS pH 8, 10 mM MgSO4, 2 mM DTT, 0.25 mM adenine (Methods; 1 or 10 mM in Results and Fig. S3), 100 nM DNA, 30 C 1 h then 25 C 1 h, 6% native PAGE Tris-glycine with 0.25 mM adenine. As to conditions: protein: recombinant; tags: N-terminal His6; chain copies: 4; label: 5' 6-carboxyfluorescein on printed strand; blunt. (In general: Fluorescence polarisation rises when a labelled molecule tumbles more slowly, as on binding a larger partner.)

Here are results for two molecules from article PMC8376909, “Identification of a transcription factor, PunR, that regulates the purine and purine nucleoside transporter punC in E. coli”.

Broadly, the Kd is a measure of binding affinity in units of concentration.

B1: GguR binding site 26 bp (negative control) (dsDNA)
DNA 1: ACCCCCAGTCATCAGACAACCTCCCC
DNA 2: GGGGAGGTTGTCTGATGACTGGGGGT
As for B1, in data set [1], the binding result was “no binding”.

B2: PunR-binding site 36 bp upstream of punC (dsDNA)
DNA 1: TGGGGACTGGTTTCAAAAATTTTGCAGGCAGAGGGG
DNA 2: CCCCTCTGCCTGCAAAATTTTTGAAACCAGTCCCCA
Regarding B2, the Kd in data set [2] worked out at 27 nM.
